Measurements as given in patent US20250361297A1 (ADAPTAM THERAPEUTICS S L, published 2025).

T1: mouse Siglec-15, full length, expressed on HEK293T cells (mouse)
T1 construct: also called mS15; HEK293T cells expressing mouse Siglec-15
T1 chain: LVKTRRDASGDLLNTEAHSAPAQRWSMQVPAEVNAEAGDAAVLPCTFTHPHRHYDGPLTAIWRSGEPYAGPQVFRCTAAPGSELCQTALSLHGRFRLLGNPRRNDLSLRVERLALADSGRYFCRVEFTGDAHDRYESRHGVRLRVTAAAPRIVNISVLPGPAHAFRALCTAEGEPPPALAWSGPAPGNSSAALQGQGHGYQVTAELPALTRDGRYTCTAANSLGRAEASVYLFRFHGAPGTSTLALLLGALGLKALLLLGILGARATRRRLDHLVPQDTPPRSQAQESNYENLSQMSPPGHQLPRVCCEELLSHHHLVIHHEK

T2: human Siglec-15, full length, expressed on cells (human, UniProt Q6ZMC9 20-328)
T2 construct: also called hS15; MOLM-13 Siglec-15 expressing cells
T2 sequence: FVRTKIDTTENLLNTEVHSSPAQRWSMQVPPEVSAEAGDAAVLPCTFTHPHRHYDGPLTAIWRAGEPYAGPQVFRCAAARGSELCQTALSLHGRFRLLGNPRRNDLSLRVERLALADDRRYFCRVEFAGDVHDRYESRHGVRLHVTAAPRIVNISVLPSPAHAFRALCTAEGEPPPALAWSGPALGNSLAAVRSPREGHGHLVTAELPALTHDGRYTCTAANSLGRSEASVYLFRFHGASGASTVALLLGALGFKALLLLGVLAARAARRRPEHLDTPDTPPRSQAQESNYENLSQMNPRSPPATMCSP

T3: truncated human Siglec-15 comprising only domain 2 (D2), expressed on HEK293T cells (human, UniProt Q6ZMC9 168-251, limits assumed)
T3 construct: also called domain 2-only human Siglec-15; Siglec-15 Domain 2 (D2) HEK293T cells
T3 sequence: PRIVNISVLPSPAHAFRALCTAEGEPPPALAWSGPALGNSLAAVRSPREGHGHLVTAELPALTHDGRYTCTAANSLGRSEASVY

T4: recombinant Siglec-15 (bispecific antibody affinity assay) (Homo sapiens (Human), UniProt Q6ZMC9 20-263, limits assumed)
T4 sequence: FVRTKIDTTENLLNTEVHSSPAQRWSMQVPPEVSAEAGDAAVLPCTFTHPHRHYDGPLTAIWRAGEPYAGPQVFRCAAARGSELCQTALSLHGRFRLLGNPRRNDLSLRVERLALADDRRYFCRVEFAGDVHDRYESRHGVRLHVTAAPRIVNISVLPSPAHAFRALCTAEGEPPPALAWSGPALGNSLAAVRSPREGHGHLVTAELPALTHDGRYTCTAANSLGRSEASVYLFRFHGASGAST

T5: recombinant human Siglec-15-his protein (Bonopusbio) (human, UniProt Q6ZMC9 20-263)
T5 construct: Bought (CW37-50 ug in the ELISA; the SPR paragraph prints CW70-50 ug); whole entry named; also called recombinant human Siglec-15 protein
T5 sequence: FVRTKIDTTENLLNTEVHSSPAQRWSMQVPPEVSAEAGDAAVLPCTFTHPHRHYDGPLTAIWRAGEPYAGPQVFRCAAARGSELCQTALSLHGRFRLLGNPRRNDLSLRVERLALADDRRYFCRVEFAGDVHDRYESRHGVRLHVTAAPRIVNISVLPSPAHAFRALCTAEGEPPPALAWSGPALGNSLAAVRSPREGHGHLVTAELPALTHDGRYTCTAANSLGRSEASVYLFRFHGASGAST


What was measured:
[1] = target: T1, mouse Siglec-15, full length, expressed …; assay: IgG1 titration, flow cytometry on HEK293T cells expressing mouse Siglec-15
Experimental: The antibodies were titrated against HEK293T cells expressing mouse Siglec-15 or HEK293T cells expressing a truncated human Siglec-15 consisting solely of domain 2 (FIG. 9).
For the ELISA, antigens were immobilized on high-binding plates, and the full-length IgG1 anti-Siglec-15 antibodies were titrated beginning at a concentration of 10 μg/ml. After washing, an anti-human IgG Fab-specific HRP-conjugated secondary antibody was applied for detection. Palivizumab was included as the negative control. Optical densities were measured to generate binding curves from which EC50 values were derived. In the flow cytometry assay, MOLM-13 cells expressing human Siglec-15 and MOLM-13 wild-type cells (negative control) were incubated with titrated antibodies starting at 10 μg/ml. After incubation, cells were washed and incubated with an anti-human Fc-specific secondary antibody conjugated with a fluorescent marker. Flow cytometric analysis was conducted, and fluorescence intensity was used to calculate EC50 values, providing a quantitative assessment of the antibodies' cell surface binding efficacy. HEK293T cells were genetically engineered to express full-length mouse Siglec-15 and a truncated version of human Siglec-15 encompassing only domain 2. Antibodies were titrated starting at a concentration of 10 μg/ml and detected with an anti-human Fc-specific secondary antibody to detect bound primary antibodies. […] Results were analyzed and ranked based on the EC50 values.

[2] = target: T2, human Siglec-15, full length, expressed …; assay: IgG1 titration, flow cytometry on MOLM-13 human Siglec-15 cells
Experimental: Complementary to the ELISA, flow cytometry assays provided insight into the binding behavior of the antibodies on the cell surface. Here, titration of the antibodies began at the same concentration of 10 μg/ml, using MOLM-13 human Siglec-15 and MOLM-13 wild-type cells as a negative control, with detection performed using an anti-human Fc secondary antibody (FIG. 8B).
In the flow cytometry assay, MOLM-13 cells expressing human Siglec-15 and MOLM-13 wild-type cells (negative control) were incubated with titrated antibodies starting at 10 μg/ml. After incubation, cells were washed and incubated with an anti-human Fc-specific secondary antibody conjugated with a fluorescent marker. Flow cytometric analysis was conducted, and fluorescence intensity was used to calculate EC50 values, providing a quantitative assessment of the antibodies' cell surface binding efficacy.

[3] = target: T3, truncated human Siglec-15 comprising …; assay: flow cytometry, HEK293T cells expressing only domain 2 of human Siglec-15, fold change of Siglec15 gMFI relative to 2ry control
Experimental: Assessment of the binding of anti-Siglec-15 antibodies to HEK293T cells expressing full length human Siglec-15, or mutant human Siglec-15 (R143A) or the domain 2 of human Siglec-15 by Flow cytometry: Siglec-15+, Siglec-15+R143A, and Siglec-15 Domain 2 (D2) HEK293T cells were detached using tryple and washed once with PBS, resuspended in 1× flow cytometry buffer (PBS with 1% FBS) at approximately 1-2×10\hat{ }6 cells/mL. Then, anti-Siglec-15 mAbs were added to the cell suspension at the desired concentration, starting at 10 μg/mL and performing 1/3 dilutions. Cells were incubated with the indicated antibodies for 30-60 minutes at 4° C. in the dark to prevent degradation of the fluorescent signal. After the primary antibody incubation, cells were washed twice with PBS or flow cytometry buffer by centrifuging at 300-500× g for 5 minutes and the pellet resuspended in fresh buffer. The following antibody was added: anti-human IgG-PE at a 1:500 dilution. Cells were incubated with the secondary antibody for 30 minutes at 4° C. in the dark. Finally, cells were washed twice with PBS or flow cytometry buffer to remove any excess secondary antibody and acquired in a flow cytometer.

[4] = target: T4, recombinant Siglec-15 (bispecific …); assay: antibody as ligand, human Siglec15 as analyte; legend paragraph 114 says BLI, methods paragraph 422 say Biacore SPR, table in RU
recombinant CD3 = recombinant CD3 (UniProt P07766 23-126; P09693 23-116); assay: antibody as ligand, 'Human CD3 epsilon&CD3 gamma' as analyte; legend paragraph 116 says BLI, methods paragraph 422 say Biacore SPR, table in RU
Sequence of recombinant CD3 (P07766 23-126, form in doubt, chain 1 of 2): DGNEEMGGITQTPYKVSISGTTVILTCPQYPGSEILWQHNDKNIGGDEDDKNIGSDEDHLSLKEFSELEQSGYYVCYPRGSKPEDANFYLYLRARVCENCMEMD
Sequence of recombinant CD3 (P09693 23-116, form in doubt, chain 2 of 2): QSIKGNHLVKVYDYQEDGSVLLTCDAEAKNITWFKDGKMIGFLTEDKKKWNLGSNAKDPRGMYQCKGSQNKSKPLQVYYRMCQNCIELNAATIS

[5] = target: T5, recombinant human Siglec-15-his protein …; assay: SPR (Biacore T200), antibody on CM5 chip, Siglec-15-his as analyte
Experimental: Binding affinity determination of anti-Siglec-15 monoclonal antibodies using BIACORE surface plasmon resonance: The purified anti-Siglec-15 monoclonal antibodies (mAbs) were characterized for binding affinity and binding kinetics by Biacore T200 system (GE healthcare, Pittsburgh, PA, USA). […] Un-reacted moieties on the biosensor surface were blocked with ethanolamine. Then, serially diluted recombinant human Siglec-15-his protein (Bonopusbio, CW70-50 ug), 2-fold serial dilution in HBS-EP buffer starting at 80 nM, were respectively flown onto the chip at a flow rate of 30 pL/min. The antigen-antibody association kinetics was followed for 2 minutes, and the dissociation kinetics was followed for 10 minutes. The association and dissociation curves were fit to a 1:1 Langmuir binding model using BIAcore evaluation software. The dissociation rate (kd) and association constant (ka) rate constants were obtained using Evaluation Software. The equilibrium dissociation constant (KD) was calculated from the ratio of kd over ka.

[6] = target: T2, human Siglec-15, full length, expressed …; assay: flow cytometry, HEK293T cells expressing human Siglec-15, anti-human IgG-PE, MFI
Experimental: Flow cytometry was used to quantify the antibodies bound to the HEK293T cells.
Then, anti-Siglec-15 mAbs were added to the cell suspension at the desired concentration, starting at 10 μg/mL and performing 1/3 dilutions. Cells were incubated with the indicated antibodies for 30-60 minutes at 4° C. in the dark to prevent degradation of the fluorescent signal. After the primary antibody incubation, cells were washed twice with PBS or flow cytometry buffer by centrifuging at 300-500× g for 5 minutes and the pellet resuspended in fresh buffer. The following antibody was added: anti-human IgG-PE at a 1:500 dilution. Cells were incubated with the secondary antibody for 30 minutes at 4° C. in the dark. Finally, cells were washed twice with PBS or flow cytometry buffer to remove any excess secondary antibody and acquired in a flow cytometer.

| Binder | EC50 [1] [µg/mL] | EC50 [2] [µg/mL] | binding result [3] | Kd [5] [nM] | koff [5] [s⁻¹] | kon [5] [M⁻¹ s⁻¹] | also measured |
| --- | --- | --- | --- | --- | --- | --- | --- |
| ZLA-1243-E01 (antibody, V domains shown, Fully human, from phage display) VH: QVQLVQSGGGLVQPGRSLRLSCAASGFTFDDYAMHWVRQAPGKGLEWVSGISWNSGSIGYADSVKGRFTISRDNAKNSLYLQMNSLRAEDTALYYCAKGLWPSYDLDAFDIWGQGTMVTVSS VL: QSALTQPASVSGSPGQSITLSCTGTSSDVGAYNFVSWYQQHPGTAPKLMIYEVSNRPSGVSDRFSGSKSGNTASLTISGLQAEDEADYYCSSYTSTIPPFVFGTGTKVTVL | 0.0849 | 0.174 | no binding | – | – | – | – |
| ZLA-1212-B05 (antibody, V domains shown, Fully human, from phage display; also called clone ZLA-1212-B05) VH: QVQLVQSGGGVVQPGRSLRLSCAASGFTFSSYAMHWVRQAPGKGLEWVAVISYDGSNKYYADSVKGRFTISRDNSKNTLYLQMNSLRAEDTAVYYCAREGGSYYGYFDYWGQGTLVTVSS VL: QSVLTQPPSVSVAPGKTARITCGGNNIGSKSVHWYQQKPGQAPVLVIYDDSDRPSGIPERFSGSNSGNTATLTISRVEAGDEADYYCQVWDSSSDHRVFGGGTKLTVL | 0.168 | 0.215 | no binding | – | – | – | – |
| ZLA-1214-D08 (antibody, V domains shown, Fully human, from phage display) VH: EVQLVQSGAEVKKPGASVKVSCKASGYTFTGYYMHWVRQAPGQGLEWMGRINPNSGGTNYAQKFQGRVTMTRDTSTSTAYMELSRLRSDDTAVYYCARVINDAFDMWGQGTMVTVSS VL: not shown | 0.103 | 0.106 | no binding | – | – | – | – |
| ZLA-1214-B07 (antibody, V domains shown, Fully human, from phage display) VH: QVQLVQSGAEVKKPGSSVKVSCKASGGTFSSYAISWVRQAPGQGLEWMGGIIPIFGTANYAQKFQGRVTITADESTSTAYMELSSLRSEDTAVYYCARDGGRDGYNPKKILEFDYWGQGTLVTVSS VL: not shown | 0.102 | 0.133 | no binding | – | – | – | – |
| ZLA-1212-E09 (antibody, V domains shown, also called clone ZLA-1212-E09) VH: QVQLVQSGGGVVQPGRSLRLSCAASGFTFSSYGMHWVRQAPGKGLEWVAVISYDGSNKYYADSVKGRFTISRDNSKNTLYLQMNSLRAEDTAVYYCAKDDSGYYDSSGYDYWGQGTLVTVSS VL: QSVLTQPPSVSGAPGQRVTISCTGSSSNIGAGYDVHWYQQLPGTAPKLLIYGNSNRPSGVPDRFSGSKSGTSASLAITGLQAEDEADYYCQSYDSSLSGVVFGGGTKLTVL | 0.191 | 0.178 | no binding | – | – | – | – |
| BsAb-2 (bispecific antibody, human IgG1, kappa, L234A L235A, 2 + 1 format; also called anti-Siglec-15/CD3 bispecific antibody, Format-2: KIH & scFv (2 + 1)) light 1: not shown heavy 1: QVQLQQSGPELVKPGASVKISCKASGYAFSSSWMNWVKQRPGKGLEWIGRIYPGHGETNYNGKFKDKATVTADKSSSTTYMQLSSLTSEDSAVYFCARVDNSDPYYFDYWGQGTTLTVSSASTKGPSVFPLAPSSKSTSGGTAALGCLVKDYFPEPVTVSWNSGALTSGVHTFPAVLQSSGLYSLSSVVTVPSSSLGTQTYICNVNHKPSNTKVDKKVEPKSCDKTHTCPPCPAPEAAGGPSVFLFPPKPKDTLMISRTPEVTCVVVDVSHEDPEVKFNWYVDGVEVHNAKTKPREEQYNSTYRVVSVLTVLHQDWLNGKEYKCKVSNKALPAPIEKTISKAKGQPREPQVCTLPPSRDELTKNQVSLSCAVKGFYPSDIAVEWESNGQPENNYKTTPPVLDSDGSFFLVSKLTVDKSRWQQGNVFSCSVMHEALHNHYTQKSLSLSPGK heavy 2: not shown light 2: not shown | – | – | – | – | – | – | Kd [4]: 0.17 nM; koff [4]: 0.000133 s⁻¹; kon [4]: 786000 M⁻¹ s⁻¹; Kd (recombinant CD3): 137 nM; koff (recombinant CD3): 0.00739 s⁻¹; kon (recombinant CD3): 53800 M⁻¹ s⁻¹ |
| S15B1-VH3 + VL2 (antibody, V domains shown, Humanized S15B1; also called humanized S15B1 VH3+VL2; huS15B1) VH: QVQLVQSGAEVKKPGASVKVSCKASGYAFSSSWMNWVKQAPGQGLEWIGRIYPGHGETNYNGKFKDRATMTADTSTSTVYMELSSLRSEDTAVYFCARVDNSDPYYFDYWGQGTTVTVSS VL: DIVLTQSPASLAVSPGQRATITCRASKSVSTSGYSYMHWYQQKPGQPPKLLIYLASNLESGVPARFSGSGSGTDFTLTINPVEAEDTATYYCQHGRELPFTFGGGTKLEIK | – | – | – | 0.0653 | 0.000293 | 4.49e+06 | EC50 (read off the curve) [6]: ~1 nM |
| S15B1-VH2 + VL1 (antibody, V domains shown, Humanized S15B1; also called humanized S15B1 VH2+VL1; huS15B1) VH: QVQLVQSGAEVKKPGASVKVSCKASGYAFSSSWMNWVRQAPGQGLEWIGRIYPGHGETNYNGKFKDRVTMTADTSTSTVYMELSSLRSEDTAVYFCARVDNSDPYYFDYWGQGTTVTVSS VL: DIVLTQSPASLAVSPGQRATITCRASKSVSTSGYSYMHWYQQKPGQPPKLLIYLASNLESGVPARFSGSGSGTDFTLTINPVEAEDTANYYCQHGRELPFTFGGGTKLEIK | – | – | – | 0.125 | 0.000473 | 3.8e+06 | – |
| S15B1-VH1 + VL1 (antibody, V domains shown, Humanized S15B1; also called humanized S15B1 VH1+VL1; huS15B1) VH: QVQLVQSGAEVKKPGASVKVSCKASGYAFSSSWMNWVRQAPGQGLEWIGRIYPGHGETNYNGKFKDRVTMTADTSTSTVYMELSSLRSEDTAVYFCARVDNSDPYYFDYWGQGTTVTVSS VL: DIVLTQSPASLAVSPGQRATITCRASKSVSTSGYSYMHWYQQKPGQPPKLLIYLASNLESGVPARFSGSGSGTDFTLTINPVEAEDTANYYCQHGRELPFTFGGGTKLEIK | – | – | – | 0.136 | 0.000455 | 3.35e+06 | – |
| S15B1-VH4 + VL2 (antibody, V domains shown, Humanized S15B1; also called humanized S15B1 VH4+VL2; huS15B1) VH: QVQLVQSGAEVKKPGASVKVSCKASGYAFSSSWMNWVKQAPGQGLEWIGRIYPGHGETNYNGKFKDRATMTADKSTSTVYMELSSLRSEDTAVYFCARVDNSDPYYFDYWGQGTTVTVSS VL: DIVLTQSPASLAVSPGQRATITCRASKSVSTSGYSYMHWYQQKPGQPPKLLIYLASNLESGVPARFSGSGSGTDFTLTINPVEAEDTATYYCQHGRELPFTFGGGTKLEIK | – | – | – | 0.138 | 0.000234 | 1.69e+06 | – |
| S15B1-VH2 + VL2 (antibody, V domains shown, Humanized S15B1; also called humanized S15B1 VH2+VL2; huS15B1) VH: QVQLVQSGAEVKKPGASVKVSCKASGYAFSSSWMNWVRQAPGQGLEWIGRIYPGHGETNYNGKFKDRVTMTADTSTSTVYMELSSLRSEDTAVYFCARVDNSDPYYFDYWGQGTTVTVSS VL: DIVLTQSPASLAVSPGQRATITCRASKSVSTSGYSYMHWYQQKPGQPPKLLIYLASNLESGVPARFSGSGSGTDFTLTINPVEAEDTATYYCQHGRELPFTFGGGTKLEIK | – | – | – | 0.0946 | 0.000326 | 3.44e+06 | EC50 (read off the curve) [6]: ~1 nM |
| S15B1-VH4 + VL1 (antibody, V domains shown, Humanized S15B1; also called humanized S15B1 VH4+VL1; huS15B1) VH: QVQLVQSGAEVKKPGASVKVSCKASGYAFSSSWMNWVKQAPGQGLEWIGRIYPGHGETNYNGKFKDRATMTADKSTSTVYMELSSLRSEDTAVYFCARVDNSDPYYFDYWGQGTTVTVSS VL: DIVLTQSPASLAVSPGQRATITCRASKSVSTSGYSYMHWYQQKPGQPPKLLIYLASNLESGVPARFSGSGSGTDFTLTINPVEAEDTANYYCQHGRELPFTFGGGTKLEIK | – | – | – | 0.0938 | 0.000385 | 4.1e+06 | – |
| S15B1-VH1 + VL2 (antibody, V domains shown, Humanized S15B1; also called humanized S15B1 VH1+VL2; huS15B1) VH: QVQLVQSGAEVKKPGASVKVSCKASGYAFSSSWMNWVRQAPGQGLEWIGRIYPGHGETNYNGKFKDRVTMTADTSTSTVYMELSSLRSEDTAVYFCARVDNSDPYYFDYWGQGTTVTVSS VL: DIVLTQSPASLAVSPGQRATITCRASKSVSTSGYSYMHWYQQKPGQPPKLLIYLASNLESGVPARFSGSGSGTDFTLTINPVEAEDTATYYCQHGRELPFTFGGGTKLEIK | – | – | – | 0.159 | 0.000563 | 3.54e+06 | – |
